The labels stand for the following.
B1: humVx10_01_IgG4PE (antibody, V domains shown)
VH: QVQLVQSGAEVKKPGASVQVSCKASGYTFTNYWIHWLRQAPGQGLEWMGYIDPNTVYTDYNQRFEDRVTMTSDTSISTAYMELSSLRSDDTAVYYCARGGKRGVDSWGQATLVTVSS
VL: DIVMTQSPLSLPVTPGEPASISCRSSQSLENSNGDTYLNWYLQKPGQSPRLLIYRVSNRFSGVPDRFSGSGSGTDFTLKISRVEADDVGIYYCLQVSHVPWTFGQGTKLEIKR
notes: Humanized full length IgG4 PE, human kappa
B2: Vx10 (antibody, V domains shown)
VH: QVQLQQSGAELAKPGASVKMSCKASGYTFTNYWIHWIKQRPGQGLEWIGYIDPNTVYTDYNQRFEDKATLTADKSSNTAYMQLNSLTSEDSAVYYCSRGGKRGVDSWGQGTSVTVSS
VL: DVVMTQTPLSLPVSLGDQASISCRSSQSLENSNGDTYLNWYLQKPGQSPQLLIYRVSNRFSGVLDRFSGSGSGTDFTLQISRVEAEDLGVYFCLQVSHVPWTFGGGTNLEIK
notes: Murine mAb; also called murine anti-CD47 mAb Vx10
B3: Vx12 (antibody, V domains shown)
VH: QVQLLQSGAQLVKPGTSMKLSCKASGYTFTNYFLYWVKQRPGQGLEWIGDINPNAGSTNLNERFKSKATLTVDKSSSTAYLQLSGLTSEDSAVYYCTRGGYTMDYWGQGTSVTVSS
VL: DVVMTQIPLSLPVSLGDQASISCRSSQSLVHSNGNTYLHWYLQKPGQSPKLLIYKVSNRFSGVPDRFSGSGSGTDFTLKISRVEAEDLGVYFCSQSTHVPRTFGGGTKLEIK
notes: Murine mAb; also called murine anti-CD47 mAb Vx12
B4: Vx13 (antibody, V domains shown)
VH: EVQLQQSGPEVVKPGASVRISCKASDYTFTNYYIHWVRQRPGQGLEWIGWIYPGNNNNKYNEKFKGKATLTEDTSSSTAYMQLSSLTSEDSAVYFCARGGYTMDYWGQG
VL: DVLMTQTPLSLPVSLGDQASISCRSSQSLVHSNGNTYLHWYLQKPGQSPNLLIYKVSNRFSGVPDRFSGSGSGTDFTLKINRVETEDLGIYFCSQSTHVLTFGAG
notes: Murine mAb; also called murine anti-CD47 mAb Vx13
B5: Vx10_mh_IgG1N297Q (antibody)
heavy: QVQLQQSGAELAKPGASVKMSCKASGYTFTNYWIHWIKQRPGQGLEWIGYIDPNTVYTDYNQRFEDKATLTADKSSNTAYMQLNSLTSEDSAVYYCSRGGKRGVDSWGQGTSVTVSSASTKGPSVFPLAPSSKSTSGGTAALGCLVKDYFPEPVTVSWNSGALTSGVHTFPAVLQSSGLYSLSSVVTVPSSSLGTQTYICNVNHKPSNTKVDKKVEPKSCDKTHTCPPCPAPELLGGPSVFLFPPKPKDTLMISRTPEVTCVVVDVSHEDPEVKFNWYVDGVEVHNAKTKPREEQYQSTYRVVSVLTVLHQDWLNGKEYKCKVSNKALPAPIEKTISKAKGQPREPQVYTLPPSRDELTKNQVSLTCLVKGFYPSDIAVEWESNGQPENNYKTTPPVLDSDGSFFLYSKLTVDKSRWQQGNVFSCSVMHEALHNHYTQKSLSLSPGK
light: DVVMTQTPLSLPVSLGDQASISCRSSQSLENSNGDTYLNWYLQKPGQSPQLLIYRVSNRFSGVLDRFSGSGSGTDFTLQISRVEAEDLGVYFCLQVSHVPWTFGGGTNLEIKRTVAAPSVFIFPPSDEQLKSGTASVVCLLNNFYPREAKVQWKVDNALQSGNSQESVTEQDSKDSTYSLSSTLTLSKADYEKHKVYACEVTHQGLSSPVTKSFNRGEC
notes: Mouse-human chimeric full length IgG, human IgG1-N297Q and human kappa, made in CHO cells; also called chimeric Vx10 IgG1 N297Q
B6: Vx10_mh_IgG4PE (antibody)
heavy: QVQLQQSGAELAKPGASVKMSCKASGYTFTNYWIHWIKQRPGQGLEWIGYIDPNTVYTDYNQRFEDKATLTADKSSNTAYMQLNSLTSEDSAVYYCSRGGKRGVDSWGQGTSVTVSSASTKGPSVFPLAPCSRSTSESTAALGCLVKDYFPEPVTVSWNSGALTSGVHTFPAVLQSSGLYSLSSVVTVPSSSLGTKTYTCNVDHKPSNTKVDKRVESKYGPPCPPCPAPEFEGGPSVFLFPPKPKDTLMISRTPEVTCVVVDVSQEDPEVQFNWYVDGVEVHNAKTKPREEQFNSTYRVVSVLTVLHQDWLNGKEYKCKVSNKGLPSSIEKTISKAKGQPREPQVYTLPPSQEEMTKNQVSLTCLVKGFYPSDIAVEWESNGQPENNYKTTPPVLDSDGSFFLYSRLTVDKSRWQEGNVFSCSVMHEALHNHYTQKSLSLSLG
light: B5 light
notes: Mouse-human chimeric full length IgG, human IgG4 PE and human kappa, made in CHO cells; also called chimeric Vx10 IgG4PE
B7: Vx12_mh_IgG1N297Q (antibody)
heavy: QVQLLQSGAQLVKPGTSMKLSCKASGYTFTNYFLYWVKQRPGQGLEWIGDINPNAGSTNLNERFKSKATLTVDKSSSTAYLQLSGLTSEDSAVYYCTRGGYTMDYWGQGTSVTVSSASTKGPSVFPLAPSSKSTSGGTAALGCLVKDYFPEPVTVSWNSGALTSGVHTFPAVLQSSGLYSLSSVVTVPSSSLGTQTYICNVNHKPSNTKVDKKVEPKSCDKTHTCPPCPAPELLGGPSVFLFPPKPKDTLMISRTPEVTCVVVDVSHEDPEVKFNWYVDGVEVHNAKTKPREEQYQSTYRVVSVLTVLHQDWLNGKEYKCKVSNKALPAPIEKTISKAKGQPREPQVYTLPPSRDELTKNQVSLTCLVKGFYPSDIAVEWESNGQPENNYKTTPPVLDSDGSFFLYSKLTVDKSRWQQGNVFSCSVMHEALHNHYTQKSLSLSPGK
light: DVVMTQIPLSLPVSLGDQASISCRSSQSLVHSNGNTYLHWYLQKPGQSPKLLIYKVSNRFSGVPDRFSGSGSGTDFTLKISRVEAEDLGVYFCSQSTHVPRTFGGGTKLEIKRTVAAPSVFIFPPSDEQLKSGTASVVCLLNNFYPREAKVQWKVDNALQSGNSQESVTEQDSKDSTYSLSSTLTLSKADYEKHKVYACEVTHQGLSSPVTKSFNRGEC
notes: Mouse-human chimeric full length IgG, human IgG1-N297Q and human kappa, made in CHO cells; also called chimeric Vx12 IgG1 N297Q
B8: Vx12_mh_IgG4PE (antibody)
heavy: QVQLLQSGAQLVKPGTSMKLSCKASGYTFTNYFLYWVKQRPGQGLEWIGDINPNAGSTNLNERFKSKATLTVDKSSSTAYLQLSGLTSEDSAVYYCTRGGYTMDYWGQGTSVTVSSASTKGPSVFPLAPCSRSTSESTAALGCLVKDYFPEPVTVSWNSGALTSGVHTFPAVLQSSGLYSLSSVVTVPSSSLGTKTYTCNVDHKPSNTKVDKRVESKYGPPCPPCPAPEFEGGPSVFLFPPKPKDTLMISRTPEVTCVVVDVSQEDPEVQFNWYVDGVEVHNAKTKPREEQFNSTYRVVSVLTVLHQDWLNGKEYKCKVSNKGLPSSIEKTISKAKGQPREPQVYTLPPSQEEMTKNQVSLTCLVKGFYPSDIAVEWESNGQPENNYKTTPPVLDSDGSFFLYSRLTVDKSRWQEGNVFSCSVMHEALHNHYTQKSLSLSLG
light: B7 light
notes: Mouse-human chimeric full length IgG, human IgG4 PE and human kappa, made in CHO cells; also called chimeric Vx12 IgG4PE
B9: Vx11 (antibody, V domains shown)
VH: B3 VH with Q1E, L5Q
VL: B2 VL
notes: Murine mAb; also called murine anti-CD47 mAb Vx11

Residue numbers refer to the chain shown, from its start. Numbers in names are those of the source.

Here are results for nine molecules from patent publication US20210324075A1 (ARCH ONCOLOGY, published 2021).

T1 sequence (Q08722 other isoform, or with tags, fused parts or gaps limits assumed): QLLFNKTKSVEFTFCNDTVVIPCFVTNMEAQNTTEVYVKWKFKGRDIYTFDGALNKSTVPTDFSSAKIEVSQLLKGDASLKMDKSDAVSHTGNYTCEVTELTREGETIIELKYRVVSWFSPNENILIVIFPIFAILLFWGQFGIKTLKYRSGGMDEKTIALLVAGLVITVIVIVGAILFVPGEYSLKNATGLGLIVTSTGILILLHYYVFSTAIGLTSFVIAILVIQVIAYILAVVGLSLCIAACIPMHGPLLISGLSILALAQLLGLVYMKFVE

One test concerns the target T1, human CD47 (human, UniProt Q08722 19-292).
T1 construct: On human RBCs, on OV10 cells transfected with human CD47 (OV10-hCD47) and on Jurkat T cells; also called hCD47; integrin-associated protein (IAP)
Description: flow cytometry on human RBCs and cell-based ELISA on OV10-hCD47 cells. Here is the method: (§1) Binding activities of humanized mAbs to human CD47 on human RBCs were determined using flow cytometry. RBCs were incubated for 60 min on at 37° C. with various concentrations of the chimeric or humanized antibodies in a solution of phosphate buffered saline, pH 7.2, 2.5 mM EDT A (PBS+E). Cells were then washed with cold PBS+E and incubated for an additional hour on ice with a FITC labeled donkey-anti-human antibody (Jackson Immuno Research Labs, West Grove, Pa.) in PBS+E. Cells were washed with PBS+E, antibody binding analyzed using a C6 Accuri Flow Cytometer (Becton Dickinson) and apparent binding affinities determined by non-linear fit (Prism GraphPad software) of the median fluorescence intensities at the various antibody concentrations.
Binding activities of humanized mAbs were determined using a cell-based ELISA assay with human OVIO-hCD47 cells expressing cell surface human CD47. OVIO hCD47 cells were grown in IMDM medium containing 10% heat inactivated fetal bovine serum (BioWest; S01520). […] Reactions were terminated by the addition of HCl to 0.7N, and absorbance at 450 nm is determined using a Tecan model Infinite M200 plate reader. The apparent binding affinities of these clones to human OVIO-hCD47 cells was determined by non-linear fit (Prism GraphPad software).
(In general: Flow cytometry measures light scatter and fluorescence of single cells or particles in a stream.)
For B1, the binding result is listed as “binds”.

In a further test the target is T2, pig CD47 (pig, UniProt Q9GKE8 19-303).
T2 construct: whole, on cells; also called CD47 on pig RBCs
T2 sequence (looked up): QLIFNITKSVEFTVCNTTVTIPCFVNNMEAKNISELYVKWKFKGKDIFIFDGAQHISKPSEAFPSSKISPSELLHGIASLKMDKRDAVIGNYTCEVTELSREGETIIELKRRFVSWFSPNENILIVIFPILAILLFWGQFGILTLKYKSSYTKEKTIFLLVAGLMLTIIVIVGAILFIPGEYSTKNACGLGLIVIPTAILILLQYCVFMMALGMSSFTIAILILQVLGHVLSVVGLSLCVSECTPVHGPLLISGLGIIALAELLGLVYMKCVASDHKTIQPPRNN
Description: flow cytometry on pig RBCs, apparent affinity by non-linear fit of median fluorescence.
On to B2, for which the Kd turned out to be 123 pM.

Turning to B3, the Kd was 60 pM.

As for B4, the Kd was 102 pM.

A further test concerns the target T1, human CD47. Description: flow cytometry on human RBCs, apparent affinity. Here is the method: as §1
B5: the Kd was 40 pM.

In the case of B6, the Kd is 48 pM.

For B7, the Kd turned out to be 90 pM.

Regarding B8, the Kd worked out at 120 pM.

Another test has as its target T3, rat CD47 (rat, UniProt P97829 19-303).
T3 construct: whole, on cells; also called CD47 on rat RBCs
T3 sequence (looked up): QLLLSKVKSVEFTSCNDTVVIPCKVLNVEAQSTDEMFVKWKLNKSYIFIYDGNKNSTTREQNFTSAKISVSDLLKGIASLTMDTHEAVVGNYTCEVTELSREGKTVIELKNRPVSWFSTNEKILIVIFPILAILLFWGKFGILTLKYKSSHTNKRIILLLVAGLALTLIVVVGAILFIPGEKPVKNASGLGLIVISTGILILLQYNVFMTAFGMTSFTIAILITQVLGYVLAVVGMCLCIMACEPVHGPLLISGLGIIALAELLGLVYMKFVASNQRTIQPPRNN
Description: flow cytometry on rat RBCs, apparent affinity by non-linear fit of median fluorescence.
Take B2: the Kd was 179 pM.

On to B9, for which the Kd was found to be 231 pM.

The next test has as its target T4, dog CD47 (dog).
T4 construct: whole, on cells; also called CD47 on dog RBCs
Description: flow cytometry on dog RBCs, apparent affinity by non-linear fit of median fluorescence.
As for B2, the Kd came to 714 pM.

In the case of B9, the Kd is below 13 pM.

Turning to B3, the Kd was 101 pM.

Regarding B4, the Kd is 1620 pM.

The target in the next test is T5, mouse CD47 (mouse, UniProt Q61735 19-303).
T5 construct: whole, on cells; also called CD47 on murine RBCs (mRBCs)
T5 sequence (looked up): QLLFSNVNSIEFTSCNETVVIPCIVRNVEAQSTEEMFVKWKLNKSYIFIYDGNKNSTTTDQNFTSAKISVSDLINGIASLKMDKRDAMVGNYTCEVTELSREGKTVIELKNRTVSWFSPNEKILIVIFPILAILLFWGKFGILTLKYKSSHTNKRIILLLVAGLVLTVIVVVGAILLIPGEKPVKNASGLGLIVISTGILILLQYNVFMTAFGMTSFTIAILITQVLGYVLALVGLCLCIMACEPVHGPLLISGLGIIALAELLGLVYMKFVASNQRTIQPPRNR
The experiment in a line: flow cytometry on mouse RBCs, apparent affinity by non-linear fit of median fluorescence. Here is the method:
(§2) Binding activities of murine mAbs to mouse CD47 on murine RBCs (mRBCs) and human CD47 on human RBCs (hRBCs) were determined using flow cytometry. RBCs were incubated for 60 min on at 37° C. with various concentrations of the chimeric or humanized antibodies in a solution of phosphate buffered saline, pH 7.2, 2.5 mM EDT A (PBS+E). Cells were then washed with cold PBS+E and incubated for an additional hour on ice with a FITC labeled goat-anti-mouse antibody (Jackson Immuno Research Labs, West Grove, Pa.) in PBS +E. Cells were washed with PBS+E, antibody binding analyzed using a C6 Accuri How Cytometer (Becton Dickinson) and apparent binding affinities determined by non-linear fit (Prism GraphPad software) of the median fluorescence intensities at the various antibody concentrations.
B2: the Kd came out at 31 pM.

Turning to B9, the Kd worked out at 246 pM.

Regarding B3, the Kd was below 13 pM.

The next test has as its target T1, human CD47. Description: cell-based ELISA on OV10-hCD47 tumor cells, apparent affinity. Here is the method: Binding activities of humanized mAbs were determined using a cell-based ELISA assay with human OVIO-hCD47 cells expressing cell surface human CD47. OVIO hCD47 cells were grown in IMDM medium containing 10% heat inactivated fetal bovine serum (BioWest; S01520). One day before assay, 3×10⁴ cells were plated in 96 well cell bind plates (Corning #3300, VWR #66025-626) and were 95-100% confluent at the time of assay. Cells were washed, and various concentrations of purified antibodies added in IMDM 37° C. for 1 hr in 95%02 I 5% CO₂. Cells were then washed with media and incubated for an additional hour at 37° C. with HRP labeled secondary anti-human antibody (Promega) diluted 1/2500 in media. Cells were washed three times with PBS, and the peroxidase substrate 3,3′, 5,5′-tetramethylbenzidine is added (Sigma; Catalog #T4444). Reactions were terminated by the addition of HCl to 0.7N, and absorbance at 450 nm is determined using a Tecan model Infinite M200 plate reader. The apparent binding affinities of these clones to human OVIO-hCD47 cells was determined by non-linear fit (Prism GraphPad software).
On to B5, for which the Kd amounted to 87 pM.

Take B6: the Kd stood at 91 pM.

With B7, the Kd was found to be 69 pM.

With B8, the Kd turned out to be 70 pM.

A further test deals with T1, human CD47. Description: flow cytometry on human RBCs, apparent affinity by non-linear fit of median fluorescence. Here is the method: as §2
Regarding B2, the Kd was 459 pM.

With B9, the Kd was found to be 91 pM.

On to B3, for which the Kd stood at 384 pM.

B4: the Kd is 874 pM.
